Paper doi:10.1101/441683

Target: TssM (enteroaggregative Escherichia coli (EAEC))
Assay: cryo-EM structure

stoichiometry N (TssJ per TssM): 1.5
Substance: TssJ (natural protein)
